In patent US20120121581A1 (XOMA TECHNOLOGY, published 2012):

B1: ABT01 (antibody, V domains shown)
VH: QVQLQQSGGGLVQPGGSLRLSCAASGFTFKYDYMYWIRQAPGKGLEWVATISDGGSYTYYSDSVEGRFTTSRDNSKNTLYLQMNSLRAEDTAIYYCSRYRYDDAMDYWGQGTLVTVSS
VL: EIVLTQSPATLSLSPGERATISCRASESVDSYGHSFMQWYQQKPGQAPRLLIYRASNLEPGIPARFSGSGSGTDFTLTISSLEPEDFAVYYCQQGNEVPFTFGQGTKVEIK
B2: ABT02 (antibody, V domains shown)
VH: QVQLVQSGGGVVHPGRSLKLSCAGSGFTFSDYDMHWVRQAPGKGLEWVAVMWFDGTEKYSAESVKGRFTISRDNSKNTLFLQMNSLRADDTAVYYCAREPDWLLWGDRGALDVWGQGTTVTVSS
VL: DIVMTQSPSTLSASVGDRVTITCWASQSISSRLAWYQQKPGKAPKLLMYEATSLGSGVPSRFSGSGSGTEFTLTISSLQPDDFAAYYCQHYDTYPYTFGQGTKLEIK
B3: ABT03 (antibody, V domains shown)
VH: QVQLQQSGGGLVQPGGSLRLSCAASGFTFSNYAMTWVRQAPGKGLEWVSSISVGGSDTYYADSVKGRFTVSRDNSKNTLLLQMNSLRAEDTAVYYCAKVRTKYCSSLSCFAGFDSWGQGTRVTVSS
VL: DVVMTQSPSSLSASVGDRVTITCRASQSISSYLHWYQQKPGKAPTLLISDASSSQSGVPSRFSGSRFGTDFTLTISSLQPEDFATYYCQQSYSTRALTFGGGTKVEIK

Columns and labels:
Experiment in all cases: ELISA, toxin domain coated on plate
[1] = molecular target: BoNT/A heavy-chain C-terminus (HCC) domain (UniProt P0DPI0 1093-1296)
Sequence of BoNT/A heavy-chain C-terminus (HCC) domain (P0DPI0 1093-1296 limits assumed): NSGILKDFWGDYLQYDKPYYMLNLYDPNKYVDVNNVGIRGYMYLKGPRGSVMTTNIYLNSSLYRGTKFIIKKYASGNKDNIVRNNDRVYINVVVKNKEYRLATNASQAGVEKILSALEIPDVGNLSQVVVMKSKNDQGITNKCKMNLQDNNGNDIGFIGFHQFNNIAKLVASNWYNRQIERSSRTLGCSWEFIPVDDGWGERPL

[2] = molecular target: BoNT/A light-chain heavy-chain N-terminus (LCHN) domain (UniProt P0DPI0 1-870)
Sequence of BoNT/A light-chain heavy-chain N-terminus (LCHN) domain (P0DPI0 1-870 limits assumed): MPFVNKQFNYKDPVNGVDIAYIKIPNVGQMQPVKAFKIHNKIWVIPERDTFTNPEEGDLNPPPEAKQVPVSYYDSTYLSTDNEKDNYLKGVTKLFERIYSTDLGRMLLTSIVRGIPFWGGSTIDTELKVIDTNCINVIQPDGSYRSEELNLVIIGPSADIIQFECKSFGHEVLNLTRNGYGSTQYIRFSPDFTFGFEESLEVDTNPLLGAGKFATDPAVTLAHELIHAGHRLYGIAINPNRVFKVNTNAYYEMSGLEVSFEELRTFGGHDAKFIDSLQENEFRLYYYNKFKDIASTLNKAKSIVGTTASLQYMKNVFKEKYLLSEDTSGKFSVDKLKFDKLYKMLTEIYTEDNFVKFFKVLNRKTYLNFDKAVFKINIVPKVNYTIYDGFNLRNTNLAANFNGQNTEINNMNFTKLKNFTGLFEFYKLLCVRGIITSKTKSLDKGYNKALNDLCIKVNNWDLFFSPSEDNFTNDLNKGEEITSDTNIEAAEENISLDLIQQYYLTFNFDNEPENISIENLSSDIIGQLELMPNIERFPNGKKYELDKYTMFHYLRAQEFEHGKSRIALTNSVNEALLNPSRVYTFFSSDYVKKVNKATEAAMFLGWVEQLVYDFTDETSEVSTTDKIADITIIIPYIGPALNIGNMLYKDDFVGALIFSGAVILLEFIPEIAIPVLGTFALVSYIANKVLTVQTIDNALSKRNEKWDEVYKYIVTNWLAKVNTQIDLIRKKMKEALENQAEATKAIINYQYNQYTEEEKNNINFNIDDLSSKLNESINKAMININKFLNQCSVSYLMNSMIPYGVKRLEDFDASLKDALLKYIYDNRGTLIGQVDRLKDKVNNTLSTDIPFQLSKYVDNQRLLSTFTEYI

[3] = molecular target: BoNT/A heavy-chain N-terminus (HCN) domain (UniProt P0DPI0 871-1092)
Sequence of BoNT/A heavy-chain N-terminus (HCN) domain (P0DPI0 871-1092 limits assumed): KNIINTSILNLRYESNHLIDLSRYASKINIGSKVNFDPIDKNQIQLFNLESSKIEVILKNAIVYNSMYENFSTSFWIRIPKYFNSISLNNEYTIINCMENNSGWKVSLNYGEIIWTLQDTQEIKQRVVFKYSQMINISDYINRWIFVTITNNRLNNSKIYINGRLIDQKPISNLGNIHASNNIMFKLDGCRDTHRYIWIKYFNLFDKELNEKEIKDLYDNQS

Binder	binding result [1]	binding result [2]	binding result [3]
B1	no binding	no binding	–
B2	–	no binding	no binding
B3	no binding	–	no binding
